According to US9801923B2, “Fusion proteins containing insulin-like growth factor-1 and epidermal growth factor and variants thereof and uses thereof” (IGF Oncology, LLC, priority 2014, dated 2017):
Where two headings read alike, the source gives them in different places.

Experiments:
L929 cells = experiment: 765TNFa activity assay, killing of L929 cells; assay type: cell-based; details: 24 hours
Protocol: L929 cells were plated at 10,000 cells per well in two 96-well plates in their recommended growth medium with 2% fetal bovine serum. They were grown for 2 days at 37° C. in a 5% CO2 humidified atmosphere. In one plate, after the 2 days incubation 1 ug/ml final concentration actinomycin D was added; in the other plate no actinomycin D was added. 765TNFa was then added at a range of concentrations. Plates were incubated 24 hours more. Then cell viability was quantified with DOJINDO cell counting kit-8 according to manufacturer's instructions. […] These are even lower IC50s than are reported in the literature for TNF-alpha.

MCF-7 tumor cells [1] = experiment: in vitro cytotoxicity assay, inhibition of proliferation of MCF-7 tumor cells; assay type: cell-based; details: Homo sapiens, MCF7, read-out: IC50 (concentration needed for 50% inhibition of cell proliferation)
Protocol: Five-thousand MCF7 cells were plated per well in a 96-well test plate in 100 ul of rich media on day 0. A shadow plate was made for each test plate, with each well of the shadow plate containing media or 3× the intended final concentration of test agent in media in each well. As a negative control, media is used. […] After making the shadow plate, 50 ul is transferred from each well of the shadow plate to the corresponding well of the test plate to generate the final concentrations of test agent in the wells of the test plate. Cell proliferation is determined by adding Dojindo CCK-8 reagent and incubating and measuring absorbance of the dye according to the manufacturer's instructions.

[2] = test system: A-431 human epithelial carcinoma cells; experiment: in vitro proliferation inhibition of A-431 cells; assay type: cell-based; details: 4 days with drug
Protocol: A-431 human epithelial carcinoma cells were seeded at 5,000 cells per well in 96-well plates and grown for 1 day. A-431 cells have abundant EGF receptors. After 1 day growth, free bendamustine and 765EGF-bendamustine were added to the plate at concentrations ranging from 200 micromolar bendamstine to 6 nM and from 20 microEq/L 765EGF-bendamustine down to 0.6 nM. The plates were incubated with drug at 37 degrees C. under a humidified 5% CO2 atmosphere for 4 days, and then DOJINDO cell counting kit-8 reagent was added to wells to read proliferation. The plates were read according to manufacturer's instruction. There was a huge difference between free bendamustine and EGF-bendamustine. […] The difference in effectiveness was more than 1000-fold expressed in terms of the concentration of bendamustine groups.

IGF receptors = IGF receptors (Homo sapiens, UniProt P08069); experiment: competition binding of refolded IGF fusion proteins to IGF receptors against radioactive wild type IGF; details: Ni eluates refolded 3 hours at room temperature, read-out: approximate binding constants (KDs)
IGF receptors, sequence (P08069 31-736 limits assumed): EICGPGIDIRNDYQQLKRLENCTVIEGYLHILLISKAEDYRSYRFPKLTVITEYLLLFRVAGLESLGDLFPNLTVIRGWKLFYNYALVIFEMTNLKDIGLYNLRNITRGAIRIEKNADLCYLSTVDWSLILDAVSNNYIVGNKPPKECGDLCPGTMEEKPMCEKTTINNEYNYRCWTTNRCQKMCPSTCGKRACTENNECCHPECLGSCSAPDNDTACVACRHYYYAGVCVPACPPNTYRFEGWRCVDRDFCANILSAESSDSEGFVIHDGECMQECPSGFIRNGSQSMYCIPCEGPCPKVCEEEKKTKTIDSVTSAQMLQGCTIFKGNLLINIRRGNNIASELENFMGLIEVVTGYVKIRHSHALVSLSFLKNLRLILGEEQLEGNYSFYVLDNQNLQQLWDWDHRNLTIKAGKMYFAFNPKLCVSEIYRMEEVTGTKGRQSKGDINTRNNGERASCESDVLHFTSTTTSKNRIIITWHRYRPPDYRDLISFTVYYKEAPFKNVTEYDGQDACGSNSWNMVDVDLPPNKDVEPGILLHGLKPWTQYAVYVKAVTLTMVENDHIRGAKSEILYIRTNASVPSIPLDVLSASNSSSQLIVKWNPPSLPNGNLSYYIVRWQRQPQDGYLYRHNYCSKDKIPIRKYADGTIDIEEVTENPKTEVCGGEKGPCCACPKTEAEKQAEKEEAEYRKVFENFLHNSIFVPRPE
IGF receptors, sequence (P08069 741-1367 partner limits assumed): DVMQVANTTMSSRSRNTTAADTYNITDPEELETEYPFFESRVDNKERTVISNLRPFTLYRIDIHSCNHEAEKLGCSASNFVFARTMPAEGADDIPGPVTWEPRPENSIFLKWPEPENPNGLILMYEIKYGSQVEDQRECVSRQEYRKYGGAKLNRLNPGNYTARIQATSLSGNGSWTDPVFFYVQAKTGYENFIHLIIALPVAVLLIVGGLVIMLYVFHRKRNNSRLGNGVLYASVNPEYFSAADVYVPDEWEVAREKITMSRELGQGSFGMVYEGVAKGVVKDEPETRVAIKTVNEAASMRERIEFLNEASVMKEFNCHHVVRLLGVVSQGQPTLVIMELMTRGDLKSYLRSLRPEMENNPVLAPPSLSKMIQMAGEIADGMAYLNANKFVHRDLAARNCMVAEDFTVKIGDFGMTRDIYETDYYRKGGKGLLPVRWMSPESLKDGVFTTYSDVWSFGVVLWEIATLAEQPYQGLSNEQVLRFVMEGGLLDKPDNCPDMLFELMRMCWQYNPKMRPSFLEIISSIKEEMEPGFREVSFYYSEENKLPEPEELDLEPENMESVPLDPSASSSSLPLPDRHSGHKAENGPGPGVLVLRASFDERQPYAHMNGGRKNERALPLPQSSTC
Protocol: 2 ml of each of the original Ni eluates from Example 1 was mixed with about an equal volume of 100 mM glycine, 6 M urea, pH 9.5, concentrated by ultrafiltration in a CENTRICON 3 kDa filter unit, then brought up again in that buffer and concentrated to about 420 ul. Then they were diluted to 2 mg/ml for 403IGF, 764IGF, and 765IGF, and 4 mg/ml for 784IGF and 2.4 mg/ml for 785IGF.
200 ul of each of these was mixed rapidly with 1.8 ml of refold buffer. Refold buffer was 1.4 M urea, 100 mM glycine, 0.5 M NaCl, 19% ethanol, 0.5 mM GSSG, 4 mM GSH, pH 9.5. They were refolded at room temperature for 3 hours, and then tested in a binding assay for competition binding to IGF receptors against […] radioactive wild type IGF (Perkin Elmer, Inc.) For comparison, commercial Long-R3-IGF (LR3IGF) was also tested.

[3] = biological target: T1, type 1 IGF receptors on MCF7 cells (Homo sapiens, UniProt P08069); experiment: 765IGF binding assay to IGF-1 receptor on MCF7 cells (125I IGF-1 competition); details: overnight at 4° C.
T1 construct: type 1 IGF receptors that are abundant on MCF7 cells; host or cells: MCF7
T1 sequence (P08069 31-736 limits assumed): as the sequence (P08069 31-736 limits assumed) above
T1 sequence (P08069 741-1367 partner limits assumed): as the sequence (P08069 741-1367 partner limits assumed) above
Protocol: Theory of assay: Radioactive ^125I labeled insulin-like growth factor-1 (IGF-1) competes with a test ligand for binding to type 1 IGF receptors that are abundant on MCF7 cells (a human breast cancer cell line) in vitro.
MCF7 cell media: 500 mL MEM, 0.01 mg/mL bovine insulin; 5 mL sodium pyruvate, 5 mL non-essential amino acids, 10 mL sodium bicarbonate, 10 mL fetal bovine serum, 5 mL penicillin/streptomycin.
MCF7 cells (ATCC HTB-22) were plated at 20,000 cells per well in a volume of 0.5 mL/well in a 48-well tissue culture plate (flat bottom with low evaporation lid) and placed in a cell culture incubator set at 37° C. with 5% CO2. After 2-3 days in culture the plates were washed 2× with 0.5 mL per well of cold binding assay buffer (100 mM Hepes-NaOH, pH 7.2; 120 mM NaCl; 5 mM KCl; 1.2 mM MgSO4; 0.1% BSA). After the final wash, 0.5 mL of binding assay buffer was added to each well and the plates are placed at 4° C. for 2 to 6 hours.
Test ligands were prepared at a concentration of 10 micromolar (long-R3-IGF) or 20 micromolar (765IGF and IGF-MTX) in 5 mM HCl in a volume of 200 ul. To determine the concentration, the molecular weight of 765IGF (9742 daltons) and long-R3-IGF (9111 daltons) are used. […]
The plates were then incubated overnight at 4° C. […] Cells were lysed with 0.5 mL 300 mM NaOH, 1% SDS and the lysates were counted on a gamma counter.

[4] = biological target: T2, dihydrofolate reductase (DHFR) (Homo sapiens, UniProt P00374); experiment: inhibition of dihydrofolate reductase (Sigma-Aldrich assay kit); assay type: biochemical
T2 construct: purchased Sigma-Aldrich
T2 sequence (P00374 1-187): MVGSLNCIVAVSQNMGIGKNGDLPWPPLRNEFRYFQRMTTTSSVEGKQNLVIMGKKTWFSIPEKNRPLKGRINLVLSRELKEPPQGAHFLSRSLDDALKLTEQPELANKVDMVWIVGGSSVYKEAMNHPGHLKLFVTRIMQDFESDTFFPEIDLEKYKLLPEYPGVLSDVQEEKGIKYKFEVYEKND
Protocol: The experiments were done with the dihydrofolate reductase assay kit from Sigma-Aldrich (St. Louis, Mo., USA), according to the manufacturer's instructions. In the assay dihydrofolate reductase is mixed with pH 7.5 buffer. […] It was incubated for 30 seconds to allow inhibitor binding. Then NADPH is added to 50 uM final concentration, and then dihydrofolic acid is added to 60 uM final concentration. The reaction is monitored by measuring absorbance at 340 nm.

MCF-7 tumor cells [5] = details: for comparison, McTavish et al., 2009; cited from earlier work
[6] = assay type: physicochemical
Text: These smaller fragments are seen on SDS-PAGE.

With “765TNFa: soluble form of tumor necrosis factor alpha fused to SEQ ID NO:1 leader, SEQ ID NO:17” the “IC50 for killing the cells” value (L929 cells; L929 cells with 1 ug/ml actinomycin) was “less than 79 pg/ml” and the “IC50 for killing the cells” value (L929 cells; L929 cells with no actinomycin) was “about 70 ng/ml”.

For `CN(Cc1cnc2nc(N)nc(N)c2n1)c1ccc(C(=O)N[C@@H](CCC(=O)O)C(=O)O)cc1` [Methotrexate, methotrexate], the IC50 (MCF-7 tumor cells [1]) was 88 nM.

In the case of `Cn1c(CCCC(=O)O)nc2cc(N(CCCl)CCCl)ccc21` [bendamustine], the “concentration above which proliferation was inhibited” value [2] is reported as “above 10 micromolar” and the IC50 ([2]; Homo sapiens, 96 h) is reported as roughly 90000 nM.

B1: 785IGF: mutTrx-IGF132 fusion protein, SEQ ID NO: 16 (protein)
chain: MVKQIESKTAFQEALDAAGDKLVVVDFSATWCGHCKMIKPFFHSLSEKYSNVIFLEVDVDDSQDVASESEVKSMPTFQFFKKGQKVGEFSGANKEKLEATINELVGSKSGHHHHHHSAKGFVNQHLCGSHLVEALYLVCGDRGFYFNKPTGYGSSSRRAPQTGIVDECCFRSCDLRRLEMYCAPLKPAKSA
Work on B1 yielded a Kd (IGF receptors) of roughly 40 nM.

B2: LR3IGF: commercial Long-R3-IGF variant of IGF-1 (Sigma Aldrich), SEQ ID NO:5 (protein)
chain: MFPAMPLSSLFVNGPRTLCGALVDALQFVCGDRGFYFNKPTGYGSSSRRAPQTGIVDECCFRSCDLRRLEMYCAPLKPAKSEA
Work on B2 yielded a Kd [3] of roughly 3 nM and a Kd (IGF receptors) of roughly 1 nM.

B3: LR3IGF-MTX (conjugate)
chain: B2 chain
In the case of B3, the IC50 ([4]; DHFR, concentration of conjugated MTX groups, read-out: IC50) is given as 99 nM, the IC50 ([4]; IC50 in nEq/L divided by MTX per IGF, read-out: inhibition constant in terms of protein concentration) is given as 35 nM and the IC50 (MCF-7 tumor cells [5]) is given as roughly 400 nM.

B4: IGF132: variant of IGF-1 with reduced binding to soluble IGF binding proteins, SEQ ID NO:4 (protein)
chain: FVNQHLCGSHLVEALYLVCGDRGFYFNKPTGYGSSSRRAPQTGIVDECCFRSCDLRRLEMYCAPLKPAKSA
With B4 the stability to storage [6] was “breaks down to produce a significant amount of smaller molecular weight fragments”.

B5: 403IGF: His6-IGF fusion protein, SEQ ID NO: 14 (protein)
chain: MTSGHHHHHHSAGVNGFVNQHLCGSHLVEALYLVCGDRGFYFNKPTGYGSSSRRAPQTGIVDECCFRSCDLRRLEMYCAPLKPAKSA
With B5 the Kd (IGF receptors) was roughly 2 nM.

B6: 764IGF: His6-K5-IGF132 fusion protein, SEQ ID NO: 18 (protein)
chain: MVKGKHHHHHHNGKGKSKFVNQHLCGSHLVEALYLVCGDRGFYFNKPTGYGSSSRRAPQTGIVDECCFRSCDLRRLEMYCAPLKPAKSA
Molecule B6 has a Kd (IGF receptors) of roughly 100 nM.
